Here are results for two molecules from patent publication US20240425583A1, “METHODS AND COMPOSITIONS RELATED TO MCL-1 AND BIM HETERODIMER ANTIBODIES” (priority 2021, published 2024).

The target of assay [1] is T1, covalent Mcl-1-Bim complex (Homo sapiens, UniProt Q07820).
T1 construct: mutated to delete their transmembrane domains; made in house; host or cells: E. coli BL21 (D3) for the Mcl-1 fusion; peptide UV-crosslinked to it
Briefly: Flow cytometry detection of covalent Mcl-1-Bim complex immobilized on GSH beads. In kind it is binding. Particulars: directly labeled and secondary antibody detection, FIG. 12. The source says:
In the experiments on the left side of the graph for HSMCB (i.e., the first two columns from the left on the graph), the HSMCB antibody is an antibody having CDRs selected from SEQ ID NO: 1, SEQ ID NO: 2, SEQ ID NO: 3, SEQ ID NO: 4, SEQ ID NO: 5, SEQ ID NO: 6, and having a variable heavy chain selected from SEQ ID NO: 7, and a variable light chain selected from SEQ ID NO: 8. In the next experiment near the middle of the graph for HSMCB (i.e., the second set of two columns in the middle on the graph), the antibody is an antibody having CDRs selected from SEQ ID NO: 9, SEQ ID NO: 10, SEQ ID NO: 11, SEQ ID NO: 12, SEQ ID NO: 13, SEQ ID NO: 14, and having a variable heavy chain selected from SEQ ID NO: 15, and a variable light chain selected from SEQ ID NO: 16. The antibody reactive with BcL-XL-Bim is used as a negative control, and Mcl1 (which recognizes both Mcl-1 monomer and Mcl-1-Bim complex) is used as a positive control. The signals using a directly labeled primary antibody (i.e., the first column in each set of two columns throughout the graph) and a secondary antibody detection system (i.e., the second column in each set of two columns throughout the graph) are shown.
AML patient samples were BH3 profiled in the experiments of this example. […] Patient samples were fixed, permeabilized, stained with HSMCB and anti-Mcl-1 antibody, and measured by flow cytometry. […]

Assay [2] deals with MCF-7 breast cancer cells. Briefly: IHC staining of FFPE MCF-7 cells, wild-type vs BIM siRNA. In kind it is cell-based, human. Particulars: BIM-siRNA transfected MCF-7 cells vs wild-type, FIG. 3. The source says: The MCL-1/BIM heterodimer antibody (HSMCB) requires BIM to bind in situ. BIM siRNA was used on both MCF-7 and HCC70 cells (far left, and right middle columns, respectively), and the cells were then formalin-fixed and paraffin embedded into a tissue microarray (TMA) block, sectioned and added to glass slides, and stained with HSMCB. IHC images of the wild-type (WT) staining for both MCF-7 and HCC70 cells are shown in the middle-left, and far right columns, respectively. […] The images across the top panel in FIG. 3 are of an HSMCB antibody having CDRs selected from SEQ ID NO: 9, SEQ ID NO: 10, SEQ ID NO: 11, SEQ ID NO: 12, SEQ ID NO: 13, SEQ ID NO: 14, and having a variable heavy chain selected from SEQ ID NO: 15, and a variable light chain selected from SEQ ID NO: 16; and the images across the bottom panel in FIG. 3 are of an HSMCB antibody having CDRs selected from SEQ ID NO: 1, SEQ ID NO: 2, SEQ ID NO: 3, SEQ ID NO: 4, SEQ ID NO: 5, SEQ ID NO: 6, and having a variable heavy chain selected from SEQ ID NO: 7, and a variable light chain selected from SEQ ID NO: 8.
The experiments of this example show a set of IHC images relating to the application of the Mcl-1/Bim heterodimer antibody (HSMCB) to formalin-fixed paraffin-embedded (FFPE) specimens from MCF-7 breast cancer cells, and HCC70 triple negative breast cancer cells. […]

T1 sequence (Q07820 1-327): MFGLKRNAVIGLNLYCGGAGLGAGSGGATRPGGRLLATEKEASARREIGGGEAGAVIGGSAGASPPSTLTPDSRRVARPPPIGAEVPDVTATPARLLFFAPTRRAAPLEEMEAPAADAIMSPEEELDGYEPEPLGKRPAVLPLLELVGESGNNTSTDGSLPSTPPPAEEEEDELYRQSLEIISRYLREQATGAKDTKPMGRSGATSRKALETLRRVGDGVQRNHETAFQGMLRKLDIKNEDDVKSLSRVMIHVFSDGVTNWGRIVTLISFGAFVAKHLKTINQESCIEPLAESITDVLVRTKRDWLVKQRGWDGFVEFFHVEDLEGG
T1 sequence (O43521 146-166 partner): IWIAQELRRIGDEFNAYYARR

B1: HSMCB (SEQ ID NO: 7, SEQ ID NO: 8): MCL-1/BIM heterodimer antibody, CDRs SEQ ID NO: 1-6, variable heavy chain SEQ ID NO: 7, variable light chain SEQ ID NO: 8 (antibody, V domains shown)
VH: MNFGLSLIFLVLVLKGVQCEVQLVESGGDLVKPGGSLKLSCAVSGFTFSSYAMSWVRQTPAKRLEWVATISSGGFATYYPDTVKGRFTISRDNAKNTLYLQMSSLRSEDTAMYYCARHGGGSYGWFAYWGQGTLVTVSE
VL: MLSLAPLLSLLLLCVSDSRAETTVTQSPASLSVATGEKVTIRCITSTDIDDDMNWYQQKPGEPPKLLISEGNTLRPGVPSRFSSSGYGTDFVFTIENTLSEDFADYYCLQSDNMPYTFGGGTKLEIK
Consider B1, for which the Mcl-1-Bim bead detection result in assay [1] is “demonstrated”. For the same molecule, the “HSMCB IHC signal intensity” value in assay [2] was “reduced HSMCB IHC signal intensity”.

B2: HSMCB (SEQ ID NO: 15, SEQ ID NO: 16): MCL-1/BIM heterodimer antibody, CDRs SEQ ID NO: 9-14, variable heavy chain SEQ ID NO: 15, variable light chain SEQ ID NO: 16 (antibody, V domains shown)
VH: MDWIWIMLHLLAAATGLQSQVHLQQSGSELRSPGSSVKLSCKDFDSEVFPIAYMSWVRQKPGHGFEWIGDILPSIGRTIYGEKFEDKATLDADTVSNTAYLELNSLTSEDSAIYYCARQDTYYAMDYWGQGTSVTVSS
VL: MHFQVQIFSFLLISASVIMSRGQIVLTQSPAIMSASPGEKVTITCSASSSVSYMHWVQQKPGTSPKLWIYSTSNLASGVPARFRGSGSGTSYSLTISRMEAEDAATYYCQQRSSYPYTFGGGTKLEIK
As to B2, the Mcl-1-Bim bead detection result in assay [1] is on record as “demonstrated”. The “HSMCB IHC signal intensity” value in assay [2] is recorded as “reduced HSMCB IHC signal intensity”.
